Experimental data reported in patent US20160200813A1.
Positions count from the first letter of the chain named. Blank lines part the entries; values can stand above or below the binder they belong to.

Columns and labels:
[1] = molecular target: Mouse LRP-8 expressed on HEK293 cells (mouse) (UniProt Q924X6); test: cell-based binding assay, mLRP8
[2] = molecular target: Mouse LRP-8 expressed on HEK293 cells (mouse) (UniProt Q924X6); test: cell-based MSD-ECL binding on cells overexpressing mouse LRP-8 variant 1 (mLRP8 assay); curve without plateau up to 10000 ng/ml
[3] = molecular target: Mouse LRP-8 expressed on HEK293 cells (mouse) (UniProt Q924X6); test: fit of the FACS titration of FIG. 12A on mLRP8-transfected HEK293 cells; the column head prints EC50 only, nM is from legend paragraph 78 and the axis of FIG. 12A
[4] = molecular target: Mouse LRP-8 expressed on HEK293 cells (mouse) (UniProt Q924X6); test: cell-based MSD, 1 to 5, mouse-LRP8-HEK293
[5] = molecular target: Mouse LRP-8 expressed on HEK293 cells (mouse) (UniProt Q924X6); test: cell-based MSD, 1 to 25, mouse-LRP8-HEK293
[6] = molecular target: Mouse LRP-8 expressed on HEK293 cells (mouse) (UniProt Q924X6); test: cell-based MSD, 1 to 125, mouse-LRP8-HEK293
[7] = molecular target: Mouse LRP-8 expressed on HEK293 cells (mouse) (UniProt Q924X6); test: cell-based binding on MOUSE LRP8-HEK293, supernatant 1:5
[8] = molecular target: Mouse LRP-8 expressed on HEK293 cells (mouse) (UniProt Q924X6); test: cell-based binding on MOUSE LRP8-HEK293, supernatant 1:25
[9] = molecular target: Mouse LRP-8 expressed on HEK293 cells (mouse) (UniProt Q924X6); test: cell-based binding on MOUSE LRP8-HEK293, supernatant 1:125
[10] = molecular target: Mouse LRP-8 expressed on HEK293 cells (mouse) (UniProt Q924X6); test: cell-based MSD binding assay on 293H-mLRP8 cells; curve label 11H1-15
[11] = molecular target: Mouse LRP-8 expressed on HEK293 cells (mouse) (UniProt Q924X6); test: cell-based MSD binding assay on 293H-mLRP8 cells; curve label 11H1-21, no plateau up to about 600 nM
[12] = molecular target: Mouse LRP-8 expressed on HEK293 cells (mouse) (UniProt Q924X6); test: cell-based MSD binding assay on 293H-mLRP8 cells; curve label 11H1-20
[13] = molecular target: Mouse LRP-8 expressed on HEK293 cells (mouse) (UniProt Q924X6); test: cell-based MSD binding assay on 293H-mLRP8 cells; curve label 11H1-16, no plateau up to about 600 nM
[14] = molecular target: Mouse LRP-8 expressed on HEK293 cells (mouse) (UniProt Q924X6); test: cell-based MSD binding assay on 293H-mLRP8 cells; curve label 11H1-18
[15] = molecular target: Mouse LRP-8 expressed on HEK293 cells (mouse) (UniProt Q924X6); test: cell-based MSD binding assay on 293H-mLRP8 cells; curve label 11H1-17
[16] = molecular target: Mouse LRP-8 expressed on HEK293 cells (mouse) (UniProt Q924X6); test: cell-based MSD binding assay on 293H-mLRP8 cells; curve label 11H1-19
[17] = molecular target: Mouse LRP-8 expressed on HEK293 cells (mouse) (UniProt Q924X6); test: FACS, mouse LRP8 cells
[18] = molecular target: Mouse LRP-8 expressed on HEK293 cells (mouse) (UniProt Q924X6); test: mLRP8 cell binding; chimeric VL / chimeric VH

EC50 [10]: 3.2 nM
B3: LRP8-ML199.11H1.5B2 VH1/VL1A.15 (antibody, V domains shown)
VH: EVQLVESGGGLVKPGGSLRLSCAASRFTFSNYGMSWVRQAPGKGLEWVSTISSGGRYTYYPDHVKGRFTISRDNAKNSLYLQMNSLRAEDTAVYYCARDYLYAMDYWGQGTTVTVSS
VL: DVVMTQSPLSLPVTPGEPASISCRSSQSLVYSNENTYLHWYLQKPGQSPQVLMYKVSNRFSGVPDRFSGSGSGTDFTLKISRVEAEDVGVYFCSQSTHVPLTFGQGTKLEIK

EC50 [12]: 21 nM
B5: LRP8-ML199.11H1.5B2 VH1/VL1A.20 (antibody, V domains shown)
VH: B3 VH
VL: B3 VL with N33W, E34G

EC50 [13]: 625 nM
B6: LRP8-ML199.11H1.5B2 VH1/VL1A.16 (antibody, V domains shown)
VH: B3 VH
VL: B3 VL with N33T, E34G

EC50 [14]: 0.8 nM
B7: LRP8-ML199.11H1.5B2 VH1/VL1A.18 (antibody, V domains shown)
VH: B3 VH
VL: B3 VL with E34K

EC50 [15]: 0.7 nM
B8: LRP8-ML199.11H1.5B2 VH1/VL1A.17 (antibody, V domains shown)
VH: B3 VH
VL: B3 VL with E34L

FACS (ratio +/-) [17]: 283 | EC50 [1]: 0.32 nM | EC50 [18]: 0.95 nM
B10: chimeric anti-LRP-8 ML199.11H1.5B2 antibody [mu/hu IgG1/k] LALA (antibody, V domains shown)
VH: EVQLVESGGDLVKPGGSLKLSCAASRFTFSNYGMSWVRQTPDKRLEWVATISSGGRYTYYPDSVKGRFTISRDNAKNTLYLQMSSLRSEDTAMYYCARDYLYAMDYWGQGTSVTVSS
VL: DVVMTQTPLSLPVSLGDQASISCRSSQSLVYSNGNTYLHWYLQKPGQSPKVLMYKVSNRFSGVSDRFSGSGSGTDFTLKISRVEAEDLGVYFCSQSTHVPLTFGAGTKLELK

Second part, the binder before the results:

B1: anti-LRP-8 BGK-2C8.8C antibody (antibody, V domains shown)
VH: EVQLVESGGGLVQPGRSLKLSCAASGFTVSDYYMAWVRQAPKKGLEWVASISYEGSSTYYGDSVKGRFTISRDNAKSILYLQMNSLRSEDTATYYCARPLRYYGYNYRFAYWGQGTLVTVSS
VL: DIQMSQSPPVLSASVGDRVTLSCKASQNIHKNLDWYQQKHGEAPKLLIYYTDNLQTGIPSRFSGSGSGTDYTLTISSLQPEDVATYYCYQYNSGPTFGAGTKLELQ
EC50 [1]: 22 nM | EC50 [2]: 4.4 µg/mL | EC50 [3]: 2.61 nM

B2: BGK-7F7 (GENOVAC candidate clone of Table 17) (antibody, V domains shown)
VH: QVTLKESGPGILQPSQTLSLTCTFSGFSLSTYGLGVGWIRQPSGKGLEWLANIWWDDAKYYNPSLKNRLTISKDTSNNQAFLKIPNVDTADTARYYCARTTKPYYFDYWGQGVMVTVSS
VL: HFVLAQPNSVSTNLGSTVKLSCKRSTANIGSNYVNWYQQHEGRSPTTLIYRDDRRPDGVPDRFSGSIDRSSNSALLTINNVQTEDEADYFCQSYSSGINIFGGGTKLTVL
fold over IgG control [4]: 3.5 fold | fold over IgG control [5]: 6 fold | fold over IgG control [6]: 5.3 fold | fold over isotype control [7]: 27.4 fold | fold over isotype control [8]: 21.6 fold | fold over isotype control [9]: 13.1 fold

B4: LRP8-ML199.11H1.5B2 VH1/VL1A.21 (antibody, V domains shown)
VH: B3 VH
VL: B3 VL with N33P, E34G
EC50 [11]: 249 nM

B9: LRP8-ML199.11H1.5B2 VH1/VL1A.19 (antibody, V domains shown)
VH: B3 VH
VL: B3 VL with N33R, E34G
EC50 [16]: 24 nM
